Measurements published in patent US20170052184A1.
Like-named read-outs stand apart in the source and are kept apart here.

Assays:
[1] = molecular target: 92-133 biotin labeled HCV core peptide (hepatitis C virus) (UniProt P26664)
[2] = molecular target: C113T109N biotin labeled HCV core peptide (hepatitis C virus)
[3] = molecular target: Mut1T110N biotin labeled HCV core peptide (hepatitis C virus)
[4] = molecular target: Mut6T110S biotin labeled HCV core peptide (hepatitis C virus)
[5] = molecular target: 92-133 biotin labeled HCV core peptide (hepatitis C virus) (UniProt P26664); assay: EIA; Ab 2000 ng/mL captured on anti-mouse Fc; bt-peptide 500 ng/mL
[6] = molecular target: C113T109N biotin labeled HCV core peptide (hepatitis C virus); assay: as above
[7] = molecular target: Mut1T110N biotin labeled HCV core peptide (hepatitis C virus); assay: as above
[8] = molecular target: Mut6T110S biotin labeled HCV core peptide (hepatitis C virus); assay: as above
[9] = molecular target: 92-133 biotin labeled HCV core peptide (hepatitis C virus) (UniProt P26664); assay: EIA; Ab 62.5 ng/mL captured on anti-mouse Fc; bt-peptide 500 ng/mL
[10] = molecular target: C113T109N biotin labeled HCV core peptide (hepatitis C virus); assay: as above
[11] = molecular target: Mut1T110N biotin labeled HCV core peptide (hepatitis C virus); assay: as above
[12] = molecular target: Mut6T110S biotin labeled HCV core peptide (hepatitis C virus); assay: as above
[13] = molecular target: 92-133 biotin labeled HCV core peptide (hepatitis C virus) (UniProt P26664); assay: EIA; Ab 0.977 ng/mL captured on anti-mouse Fc; bt-peptide 500 ng/mL
[14] = molecular target: C113T109N biotin labeled HCV core peptide (hepatitis C virus); assay: as above
[15] = molecular target: Mut1T110N biotin labeled HCV core peptide (hepatitis C virus); assay: as above
[16] = molecular target: Mut6T110S biotin labeled HCV core peptide (hepatitis C virus); assay: as above
[17] = molecular target: 92-133 biotin labeled HCV core peptide (hepatitis C virus) (UniProt P26664); assay: EIA; Ab 31.25 ng/mL captured on anti-mouse Fc; bt-peptide 500 ng/mL
[18] = molecular target: C113T109N biotin labeled HCV core peptide (hepatitis C virus); assay: as above
[19] = molecular target: Mut1T110N biotin labeled HCV core peptide (hepatitis C virus); assay: as above
[20] = molecular target: Mut6T110S biotin labeled HCV core peptide (hepatitis C virus); assay: as above

Substance: HCV C11-3 monoclonal antibody
- signal at 492 nm [1]: 1.01 OD 492 nm
- signal at 492 nm [2]: 0.116 OD 492 nm
- signal at 492 nm [3]: 0.11 OD 492 nm
- signal at 492 nm [4]: 0.807 OD 492 nm
- signal at 492 nm [5]: 1.45 OD 492 nm
- signal at 492 nm [6]: 0.0707 OD 492 nm
- signal at 492 nm [7]: 0.0915 OD 492 nm
- signal at 492 nm [8]: 1.73 OD 492 nm
- signal at 492 nm [9]: 1.92 OD 492 nm
- signal at 492 nm [10]: 0.202 OD 492 nm
- signal at 492 nm [11]: 0.155 OD 492 nm
- signal at 492 nm [12]: 2.11 OD 492 nm
- signal at 492 nm [13]: 0.116 OD 492 nm
- signal at 492 nm [14]: 0.104 OD 492 nm
- signal at 492 nm [15]: 0.0755 OD 492 nm
- signal at 492 nm [16]: 0.101 OD 492 nm
- signal at 492 nm [17]: 1.55 OD 492 nm
- signal at 492 nm [18]: 0.16 OD 492 nm
- signal at 492 nm [19]: 0.107 OD 492 nm
- signal at 492 nm [20]: 1.54 OD 492 nm
